Earlier results in article PMC6969543.

Molecular target: Glu325 (UniProt position 325, TLHMFEVPFLL)
Assay: IR

Lactose permease (LacY), form used in earlier work (quoted values) (Escherichia coli)
pKa: 10.5 ± 0.1
